Source: US20210009686A1 (BEIJING XUANYI PHARMASCIENCES, published 2021)

Key:
[1] = biological target: T1, claudin 18.2 (CLDN18.2) (human); test: in-cell ELISA, hybridoma supernatant on HEK293-CLDN18.2 cells
T1 construct: also called Claudin 18 isotype 2; HEK293-CLDN18.2
Experimental: (§1) In-cell ELISAs were performed as follows: 5×10³ HEK293-CLDN18.2 cells were seeded per well in a poly-L-lysine-coated 96-well plate. The plates were then incubated at 37° C. with 5% CO₂ for 2 days. Following incubation, culture media was removed from each well, and the HEK293-CLDN18.2 cells were blocked with 200 μl blocking buffer (3% BSA/PBS (pH 7.4)) per well for 1 hour at room temperature. Each hybridoma supernatant was incubated with cells at room temperature for 1 hour. Cells were gently washed 3 times with 200 μl PBS (pH 7.4) containing 1 mM Ca²⁺ and 0.5 mM Mg²⁺. Next, cells were incubated with 100 μl of HRP-conjugated goat anti-human IgG (H+L) antibody for 1 hour at room temperature. Following the incubation, the cells were washed three times with 200 μl PBS (pH 7.4) containing 1 mM Ca²⁺ and 0.5 mM Mg²⁺. 100 μl of 1-Step™ Ultra TMB-ELISA Substrate was added to each well, and the reactions were stopped by addition of 50 μl of stop solution. OD₄₅₀ was measured using CLARIOStar microplate reader. The in-cell ELISAs were repeated for each clone using HEK293-CLDN18.1 cells.

[2] = biological target: T1, claudin 18.2 (CLDN18.2); test: FACS, hybridoma supernatant on HEK293-CLDN18.2;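 note: flow cytometry of hybridoma supernatants taken 10 days after fusion, applied to HEK293 cells stably expressing CLDN18.2, with MFI standing for mean fluorescence intensity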
Text: (§2) Ten days after fusion, hybridoma supernatants were screened by FACS against HEK293-CLDN18.2, HEK293-CLDN18.1 and HEK293.

[3] = biological target: T2, claudin 18.1 (CLDN18.1) (human, UniProt P56856 1-261); test: FACS, hybridoma supernatant on HEK293-CLDN18.1
T2 construct: also called HEK293-CLDN18.1
T2 sequence (P56856 whole entry): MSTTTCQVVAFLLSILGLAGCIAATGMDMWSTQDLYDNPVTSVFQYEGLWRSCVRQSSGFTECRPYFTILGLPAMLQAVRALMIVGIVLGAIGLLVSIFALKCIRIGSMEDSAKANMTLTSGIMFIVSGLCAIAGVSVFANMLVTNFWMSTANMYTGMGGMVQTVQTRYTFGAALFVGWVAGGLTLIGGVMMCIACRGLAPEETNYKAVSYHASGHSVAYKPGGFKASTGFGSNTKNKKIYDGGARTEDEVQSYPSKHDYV
Text: as §2

[4] = biological target: T2, claudin 18.1 (CLDN18.1); test: in-cell ELISA, hybridoma supernatant on HEK293-CLDN18.1 cells
Experimental: as §1

B1: hybridoma clone 10-P2-A (antibody, V domains shown)
VH: EVQLQQSGPALVKPGASVKMSCKASGYSFTGYNIHWVKQSHGKSLEWIGYIDPNNGVTYSNQKFKGKATLTVDKSSSTAYMQLNSLTSEDSAVYYCARPYYGNSFDYWGQGTTLTVSS
VL: DIVMTQSPSSLTVTAGEKVTMSCKSSQSLLNSGNLRNYLTWYQQKPGQPPKLLIYWASTRESGVPDRFTGSGSGTDFTLTINSVQAEDLALYFCQDGYFYPFPFGSGTKLVIK
[1]
  OD450/µg IgG: 4.71 OD450/µg IgG
[2]
  MFI: 58900
[3]
  MFI: 10900
[4]
  OD450/µg IgG: 0.34 OD450/µg IgG

B2: hybridoma clone 5-K4-B (antibody, V domains shown)
VH: EVQLQQSGPELVKPGASVKMSCKASGYTFISYLIHWVKQKPGQGLEWIGYINPYNDGTKYNEKFKGKATLTSDKSSSTASMEFSSLTSEDSAVYYCTRGDFWGQGTTLTVSS
VL: DIVMTQSPSSLTVTAGEKVTMSCKSSQSLLNSGNQKNYLTWYQQKPGQPPKLLIYWASIRASGVPDRFTGSGSGTDFTLTISSVQAEDLALYYCLNDYSFPLTFGAGTKLELK
notes: also called 5K41B
[1]
  OD450/µg IgG: 88.2 OD450/µg IgG
[2]
  MFI: 70800
[3]
  MFI: 126000
[4]
  OD450/µg IgG: 139 OD450/µg IgG

B3: hybridoma clone 2-F13-A (antibody, V domains shown)
VH: EVQLQQSGPELVKPGASVKMSCKASGYTFTNYVMHWVKQKPGQGLEWIGYINPFDDGTKYNEKFKGKATLTSDKSSSTAYMELSSLTSEDSAVYYCTRGDYWGQGTTLTVSS
VL: DIVMTQSPSSLTVTAGEKVTMTCKSSQSLLNSGNQKNYLTWYQQKPGQPPKLLIYWASTRDSGVPDRFRGSGSGTDFTLTISSVQAEDLAVYYCLNDYSFPLTFGAGTKLELK
[1]
  OD450/µg IgG: 6.49 OD450/µg IgG
[2]
  MFI: 138000
[3]
  MFI: 232000
[4]
  OD450/µg IgG: 13.3 OD450/µg IgG

B4: hybridoma clone 10-J10-B (antibody, V domains shown)
VH: QVQLQQSGAELARPGASVKLSCKASGYTFTSWSISWVKQRTGQGLEWIGEIYPRSDNIHYNEKFKGKATLTADKSSSTVYMQLSSLTSEDSAVYFCARAYYGNSFAYWGQGTLVTVSA
VL: DIVMTQSPSSLTVTAGEKVTMTCKSSQILLNSGNQKNYLTWYQQKPGQPPKLLIYWASTRESGVPDRFTGSGSGTDFSLTISSVQAEDLAIYYCQNDYYYPFTFGSGTKLEIK
[1]
  OD450/µg IgG: 102 OD450/µg IgG
[2]
  MFI: 136000
[3]
  MFI: 20400
[4]
  OD450/µg IgG: 3.05 OD450/µg IgG

B5: hybridoma clone 9-A13-B (antibody, V domains shown)
VH: EVQLVESGGGLVKPGGSRKLSCAASGFSFSDYGMHWVRQAPEKGLEWVAHISSGSSTIYYADTMKGRFTISRDNAKNTLFLQMTSLRSEDTAMYYCARFARGNTMDYWGQGTSVTVSS
VL: DIVMTQSPSSLTVTAGEKVTMSCKSSQSLLNSGNQKNYLTWYQQKPGQPPKLLIYWASTRESGVPDRFTGSGSGTDFTLTISSVQAEDLTVYYCQNGYSYPLTFGAGTKLELK
[1]
  OD450/µg IgG: 48.6 OD450/µg IgG
[2]
  MFI: 61400
[3]
  MFI: 6930
[4]
  OD450/µg IgG: 3.34 OD450/µg IgG

B6: hybridoma clone 9-M7-A (antibody, V domains shown)
VH: EVQLVESGGALVKPGGSLKLSCAASGFTFSNYAMSWIRQTPEKRLEWVATIIIGGTYTYYPDSVKGRFTISRDNAKNTLYLQMSSLRSEDTALYYCARQVYGNSFAYWGQGTLVTVSA
VL: DIVMTQSPSSLTVTAGEKVTMSCKSSQSLLNSGNQKNYLTWYQQKPGQPPKLLIYWASTRESGVPDRFTGSGSGTDFTLTISSVQAEDLAVYYCQNNYIYPFTFGSGTKLEIK
[1]
  OD450/µg IgG: 19.2 OD450/µg IgG
[2]
  MFI: 70300
[3]
  MFI: 7740
[4]
  OD450/µg IgG: 0.79 OD450/µg IgG

B7: hybridoma 1-B13-A (antibody, V domains shown)
VH: QVQLQQSGAELARPGASVKLSCKASGYTFTVWSMSWVKQRTGQGLQWIGEIYPKSGNTHYNEKFKGKATLTADKSSSTVYMQLSSLTSEDSAVYFCARAYYGNSFAYWGQGTLVTVPA
VL: DIVMTQSPSPLTVTAGEKATMSCKSSQSLLNSGNQRNYLTWYQQKPGQPPKLLIYWASTRESGVPDRFTGSGSGTDFSLTISSVQAEDLAVYYCQNDFIYPFTFGSGTKLEIK
[2]
  MFI: 61900
[3]
  MFI: 10200

B8: hybridoma clone 9-B11-A (antibody, V domains shown)
VH: EVQLVESGGGLVKPGGSRKLSCAASGFTFSDYGMHWVRQAPEKGLEWVAYISSGSSPIYYADTVKGRFTISRDNAKNTLFLQMTSLRSEDTAMYYCARFARGNAMDYWGQGTSVTVSS
VL: DIVMTQSPSSLTVTAGEKVTMSCKSSQSLLNSGNQKNYLTWYQQKPGQPPKLLIYWASTRDSGVPDRFTGSGSGTDFTLTISSVQAEDLAVYYCQNNYYYPLTFGAGTNLELK
[1]
  OD450/µg IgG: 25.9 OD450/µg IgG
[2]
  MFI: 54100
[3]
  MFI: 7630
[4]
  OD450/µg IgG: 2.18 OD450/µg IgG

B9: hybridoma clone 10-K12-A (antibody, V domains shown)
VH: EVQLVESGGGLVKPGGSRKLSCAASGFTFSDYGMFWVRQAPEKGLEWVGYISSGSSNIYYADTVKGRFTISRDNAKNTLFLQMTSLRSEDTAMYYCARIARGNAMDYWGQGTSVTVSS
VL: DIVMTQSPSSLTVTAGEKVTMSCKSSQSLLNSGNQKNYLTWYQQKPGQPPKLLIYWASTRESGVPDRFTGSGSGTDFTLTISSVQAEDLAIYYCQNDYFYPLTFGAGTKLELK
[1]
  OD450/µg IgG: 12.9 OD450/µg IgG
[2]
  MFI: 48900
[3]
  MFI: 7910
[4]
  OD450/µg IgG: 2.11 OD450/µg IgG

B10: hybridoma clone 5-J22-A (antibody, V domains shown)
VH: EVQLVESGGGLVKPGGSRKLSCAASGFTFSDYGMHWVRQAPEKGLEWVAHISSGSNIIHYADTLKGRFTISRDNAKNTLFLQMTSLRSEDTAMYYCARFARGNTMDYWGQGTSVTVSS
VL: DIVMTQSPSSLTVTAGEKVTMSCKSSQSLLNSGNQKNYLTWYQQKPGQPPKLLIYWASTRESGVPDRFTGSGSGTDFTLTISSVQAEDLTVYYCQNAYSFPLTFGAGTKLELK
[1]
  OD450/µg IgG: 15.4 OD450/µg IgG
[2]
  MFI: 46100
[3]
  MFI: 6390
[4]
  OD450/µg IgG: 2.16 OD450/µg IgG

B11: hybridoma clone 6-C5-A (antibody, V domains shown)
VH: EVQLVESGGGLVKPGGSRKLSCAASGFTFSDYGMHWVRQAPEKGLEWVAYISSGSSTIYYADTMKGRFTISRDNAKNTLFLQMTSLRSEDTAMYYCTRFARGNTMDYWGQGTSVTVSS
VL: DIVMTQSPSSLTVTAGEKVTMSCKSSQSLLNSGNQRNYLTWYQRKPGQPPKLLIYWASTRESGVPDRFTGSGSGTDFTLTISSVQAEDLTFYYCQNGYSYPLTFGAGTKLELK
[1]
  OD450/µg IgG: 12.2 OD450/µg IgG
[2]
  MFI: 94700
[3]
  MFI: 8130
[4]
  OD450/µg IgG: 1.04 OD450/µg IgG

B12: hybridoma clone 9-C6-A (antibody, V domains shown)
VH: EVQLVESGGGLVKPGGSRKLSCAASGFTFSDYGMHWVRQAPEKGLEWVAYISSGSSTIYYADTMKGRFTISRDNAKNTLFLQMTSLRSEDTAMYYCARFVRGNSMDYWGQGTSVTVSS
VL: DIVMTQSPSSLTVTAGEKVTLSCKSSQSLLNSGNQKNYLTWYQQKPRQPPKLLIYWASTRESGVPDRFTGSGSGTDFTLTISNVQAEDLTVYYCQNAYSYPLTFGAGTKLELK
[1]
  OD450/µg IgG: 28.3 OD450/µg IgG
[2]
  MFI: 52400
[3]
  MFI: 9700
[4]
  OD450/µg IgG: 3.82 OD450/µg IgG

B13: hybridoma clone 1-M5-A (antibody, V domains shown)
VH: EVQLVESGGALVKSGGSLRLSCAASGFTFSNNAMSWIRQTPEKRLEWVATIIIGGTYTYYPDSVKGRFTISRDNAKNTLYLQMSSLRSEDTAFYYCARQVYGNSFAYWGQGTLVSVSA
VL: DIVMTQSPSSLTVTAGEKVTMSCKSSQSLLNSGNQKNYLTWYQQKPGQPPKLLIYWASTRESGVPDRFTGSGSGTDFTLTISSVQAEDLAVYYCQNNYFYPFTFGSGTKLEIK
[1]
  OD450/µg IgG: 21.1 OD450/µg IgG
[2]
  MFI: 59200
[3]
  MFI: 7950
[4]
  OD450/µg IgG: 1.11 OD450/µg IgG

B14: hybridoma clone 7-B15-A (antibody, V domains shown)
VH: EVQLVESGGGLVKPGGSRKLSCAASGFTFSDYGMHWVRQAPEKGLEWIAHISSGSSTIYYADTMKGRFTISRDNAKNTLFLQMTSLRSEDTAMYYCARFVRGNALDYWGQGTSVTVSS
VL: DIVMTQSPSSLTVTAGEKVTMNCKSSQSLLNSGNQKNYLTWYQQKPGQPPKLLIYWASTRESGVPDRFTGSGSGTDFTLTISSVQAEDLTVYYCQNGYSYPLTFGAGTKLELK
[1]
  OD450/µg IgG: 13.2 OD450/µg IgG
[2]
  MFI: 105000
[3]
  MFI: 11200
[4]
  OD450/µg IgG: 1.32 OD450/µg IgG

B15: hybridoma clone 4-N1-A (antibody, V domains shown)
VH: EVQLVNSGGGLVKPGGSRKLSCAASGFTFSDYGMHWVRQAPEKGLEWVAYISSGSSTIYYADTMKGRFTISRDNAKNTLFLQMTSLRSEDTAMYYCARFVRGNSMDYWGQGTSVTVSS
VL: DIVMTQSPSSLTVTAGEKVTMSCKSSQSLLNSGNQKNYLTWYQQKPGQPPKLLIYWASTRESGVPDRFTGSGSGTDFTLTISSVQAEDLTVYYCQNAYSYPLTFGAGTKLELK
[1]
  OD450/µg IgG: 18 OD450/µg IgG
[2]
  MFI: 80100
[3]
  MFI: 12100
[4]
  OD450/µg IgG: 2.87 OD450/µg IgG

B16: hybridoma clone 7-A21-A (antibody, V domains shown)
VH: EVQLVESGGGLVKPGGSRKLSCAASGFTFSDYGMYWVRQAPEKGLEWLAYISSGSNTIYYADTVKGRFTISRDNAKNTLFLQMTSLRSEDTAMYYCARIARGNAMDYWGQGTSVTVSS
VL: DIVMTQSPSSLTVTAGEKVTMSCKSSQSLLNSGNQKNYLTWYQQKPGQPPKLLIYWASTRESGVPDRFTGSGSGTDFTLTISSVQAEDLAVYYCQNDYIYPLTFGAGTKLGLK
[1]
  OD450/µg IgG: 18.4 OD450/µg IgG
[2]
  MFI: 47000
[3]
  MFI: 6450
[4]
  OD450/µg IgG: 2.51 OD450/µg IgG

B17: hybridoma clone 7-E20-A (antibody, V domains shown)
VH: EVQLVESGGGLVKPGGSRKLSCAASGFTFSDYGMHWVRQAPEKGLEWVAYISSGSSTIHYVDTMKGRFTISRDNAKNTLFLQMTSLRSEDTAMYYCARFARGNTLDYWGQGTSVTVSS
VL: DIVMTQSPSSLTVTAGEKVTMSCKSSQSLFNTGNQKNYLTWYQQKPGQPPKLLIYWASTRESGVPDRFTGSGSGTDFTLTISSVQAEDLTVYYCQNGYSYPLTFGAGTKLELK
[1]
  OD450/µg IgG: 20.4 OD450/µg IgG
[2]
  MFI: 72600
[3]
  MFI: 7460
[4]
  OD450/µg IgG: 2.23 OD450/µg IgG

B18: hybridoma clone 10-L9-A (antibody, V domains shown)
VH: EVQLVESGGGLVKPGGSRKLSCAASGFTFSDYGMHWVRQAPEKGLEWIAYINSGSSTIYYADTVKGRFTISRDNAKNTLFLQMTSLRSEDTAMFYCARFARGNVLDYWGQGTSVTVSS
VL: DIVMTQSPSSLTVTAGEKVTMSCRSSQSLLNSGNQRNYLTWYQQKPGHPPKLLIYWASTRESGVPDRFTGSGSGTDFTLTISGVQAEDLAVYYCQNGYSYPLTFGAGTKLEVK
[1]
  OD450/µg IgG: 9.52 OD450/µg IgG
[2]
  MFI: 127000
